Measurements published in the supplement of paper PMC10065799, “High-throughput profiling of sequence recognition by tyrosine kinases and SH2 domains using bacterial peptide display” (eLife, 2023).

Legend:
Grb2 SH2 = Grb2 SH2 (UniProt P62993); test: SH2 binding enrichment of the phosphorylated peptide, bacterial display (enrichment ratio); higher = better substrate or ligand; peptides without Tyr show the background
c-Src SH2 = test: as above
SHP2-C SH2 = test: as above
AncSZ = test: phosphorylation enrichment, bacterial display (enrichment ratio); higher = better substrate or ligand; peptides without Tyr show the background
Fes = Fes (UniProt P07332); test: as above
c-Abl (mouse) = test: as above
EPHB2 = EPHB2 (UniProt P29323); test: as above
Hck = Hck (UniProt P08631); test: as above
Fer (mouse) = test: as above
Jak2 = Jak2 (UniProt O60674); test: as above
MERTK = MERTK (UniProt Q12866); test: as above
c-Src = test: as above
EPHB1 = EPHB1 (UniProt P54762); test: as above
FGFR1 = FGFR1 (UniProt P11362); test: as above
Fyn = Fyn (UniProt P06241); test: as above
FGFR3 = FGFR3 (UniProt P22607); test: as above
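For SH2 binding enrichment of the phosphorylated peptide, bacterial display in this document: peptide library displayed on the E. coli surface as eCPX fusions, selected cells deep-sequenced, score is each peptide's frequency after selection divided by its frequency in the input.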
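For phosphorylation enrichment, bacterial display in this document: 11-residue human phosphosite peptides and single-mutation variants displayed on the E. coli surface, counted by deep sequencing, each peptide's frequency after selection divided by its frequency in the unselected input library; frequency after pTyr selection over input frequency; kinase dosed for 20-30% of maximal phosphorylation in three min.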

Chain of EPHB2 (P29323 whole entry, looked up): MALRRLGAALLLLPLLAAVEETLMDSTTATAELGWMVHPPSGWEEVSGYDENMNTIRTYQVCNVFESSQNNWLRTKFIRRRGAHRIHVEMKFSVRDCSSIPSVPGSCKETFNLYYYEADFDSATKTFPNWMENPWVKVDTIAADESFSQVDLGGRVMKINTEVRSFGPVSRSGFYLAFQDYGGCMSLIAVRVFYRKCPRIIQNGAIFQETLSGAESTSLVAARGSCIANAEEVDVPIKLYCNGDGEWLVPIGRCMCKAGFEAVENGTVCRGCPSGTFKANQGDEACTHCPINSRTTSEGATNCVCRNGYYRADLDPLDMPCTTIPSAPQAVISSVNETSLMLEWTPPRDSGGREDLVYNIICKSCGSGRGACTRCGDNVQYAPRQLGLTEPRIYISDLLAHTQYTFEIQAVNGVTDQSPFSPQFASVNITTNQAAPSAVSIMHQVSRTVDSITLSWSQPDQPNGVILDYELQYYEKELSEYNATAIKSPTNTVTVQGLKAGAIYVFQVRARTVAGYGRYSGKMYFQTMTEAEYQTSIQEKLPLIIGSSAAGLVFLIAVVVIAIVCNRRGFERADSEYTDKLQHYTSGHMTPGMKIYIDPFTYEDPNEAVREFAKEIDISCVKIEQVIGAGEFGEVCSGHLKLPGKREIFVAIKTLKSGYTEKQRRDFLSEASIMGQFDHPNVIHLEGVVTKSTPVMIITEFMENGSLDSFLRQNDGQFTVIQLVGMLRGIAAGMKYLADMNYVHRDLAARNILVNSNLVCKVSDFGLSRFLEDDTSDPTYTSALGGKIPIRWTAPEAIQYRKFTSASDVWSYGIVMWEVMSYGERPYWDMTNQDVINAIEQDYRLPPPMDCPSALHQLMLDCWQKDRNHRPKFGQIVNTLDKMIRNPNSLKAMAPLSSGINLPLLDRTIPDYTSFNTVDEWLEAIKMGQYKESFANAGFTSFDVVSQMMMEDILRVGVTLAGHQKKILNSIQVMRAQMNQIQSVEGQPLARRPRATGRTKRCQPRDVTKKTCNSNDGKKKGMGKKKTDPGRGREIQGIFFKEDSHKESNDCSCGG
Chain of MERTK (Q12866 whole entry, looked up): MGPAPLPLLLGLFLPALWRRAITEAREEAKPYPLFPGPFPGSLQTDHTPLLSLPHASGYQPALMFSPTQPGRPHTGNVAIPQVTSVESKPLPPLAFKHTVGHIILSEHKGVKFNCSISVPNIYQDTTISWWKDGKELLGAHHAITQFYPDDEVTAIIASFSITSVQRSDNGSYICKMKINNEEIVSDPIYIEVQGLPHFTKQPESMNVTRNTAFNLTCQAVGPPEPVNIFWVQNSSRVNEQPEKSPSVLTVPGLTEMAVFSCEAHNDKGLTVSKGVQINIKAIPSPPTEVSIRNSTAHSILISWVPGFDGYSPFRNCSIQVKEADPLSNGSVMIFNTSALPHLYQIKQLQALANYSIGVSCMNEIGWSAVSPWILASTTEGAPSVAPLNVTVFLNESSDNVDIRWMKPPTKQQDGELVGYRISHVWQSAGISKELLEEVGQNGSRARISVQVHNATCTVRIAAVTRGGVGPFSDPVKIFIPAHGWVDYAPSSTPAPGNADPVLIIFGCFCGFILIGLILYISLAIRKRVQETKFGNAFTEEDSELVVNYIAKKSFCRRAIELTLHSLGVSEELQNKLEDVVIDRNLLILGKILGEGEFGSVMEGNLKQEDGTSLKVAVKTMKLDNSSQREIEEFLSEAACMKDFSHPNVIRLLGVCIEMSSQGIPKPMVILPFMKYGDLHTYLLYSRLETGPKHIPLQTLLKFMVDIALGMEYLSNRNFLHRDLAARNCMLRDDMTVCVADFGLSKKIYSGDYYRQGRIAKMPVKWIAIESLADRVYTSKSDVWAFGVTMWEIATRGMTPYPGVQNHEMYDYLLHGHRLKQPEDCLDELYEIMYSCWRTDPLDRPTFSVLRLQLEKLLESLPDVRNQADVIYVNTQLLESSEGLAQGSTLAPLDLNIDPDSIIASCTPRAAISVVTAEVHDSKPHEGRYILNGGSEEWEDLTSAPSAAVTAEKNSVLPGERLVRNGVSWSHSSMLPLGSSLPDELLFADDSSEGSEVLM
Chain of Jak2 (O60674 whole entry, looked up): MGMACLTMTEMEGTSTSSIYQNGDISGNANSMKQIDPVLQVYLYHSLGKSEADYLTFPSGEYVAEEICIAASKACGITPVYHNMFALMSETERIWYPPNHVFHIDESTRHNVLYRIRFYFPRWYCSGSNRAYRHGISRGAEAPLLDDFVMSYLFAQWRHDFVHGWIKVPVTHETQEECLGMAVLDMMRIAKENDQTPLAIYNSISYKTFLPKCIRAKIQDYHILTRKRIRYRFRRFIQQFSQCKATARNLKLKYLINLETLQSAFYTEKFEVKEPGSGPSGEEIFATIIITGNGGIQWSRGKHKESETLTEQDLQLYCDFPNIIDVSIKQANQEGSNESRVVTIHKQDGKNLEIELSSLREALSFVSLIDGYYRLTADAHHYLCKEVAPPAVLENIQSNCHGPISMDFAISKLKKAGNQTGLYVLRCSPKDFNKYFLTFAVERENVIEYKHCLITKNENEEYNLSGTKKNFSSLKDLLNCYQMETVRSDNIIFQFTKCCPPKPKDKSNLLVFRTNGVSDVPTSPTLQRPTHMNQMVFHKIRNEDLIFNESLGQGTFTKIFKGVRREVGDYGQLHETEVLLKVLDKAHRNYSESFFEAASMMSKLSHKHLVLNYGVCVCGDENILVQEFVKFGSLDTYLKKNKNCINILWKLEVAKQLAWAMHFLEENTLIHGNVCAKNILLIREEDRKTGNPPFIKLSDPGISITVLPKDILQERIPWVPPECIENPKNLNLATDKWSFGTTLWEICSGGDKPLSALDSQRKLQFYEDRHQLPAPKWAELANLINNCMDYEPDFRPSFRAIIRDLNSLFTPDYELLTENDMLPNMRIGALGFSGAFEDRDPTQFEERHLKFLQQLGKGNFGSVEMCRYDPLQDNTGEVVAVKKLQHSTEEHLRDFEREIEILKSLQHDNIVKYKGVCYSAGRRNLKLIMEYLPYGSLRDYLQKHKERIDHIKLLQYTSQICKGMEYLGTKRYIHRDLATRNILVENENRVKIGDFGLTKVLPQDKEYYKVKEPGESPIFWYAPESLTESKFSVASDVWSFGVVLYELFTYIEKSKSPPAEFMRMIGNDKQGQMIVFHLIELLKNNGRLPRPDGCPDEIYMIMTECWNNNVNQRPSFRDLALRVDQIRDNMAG
Chain of Hck (P08631 whole entry, looked up): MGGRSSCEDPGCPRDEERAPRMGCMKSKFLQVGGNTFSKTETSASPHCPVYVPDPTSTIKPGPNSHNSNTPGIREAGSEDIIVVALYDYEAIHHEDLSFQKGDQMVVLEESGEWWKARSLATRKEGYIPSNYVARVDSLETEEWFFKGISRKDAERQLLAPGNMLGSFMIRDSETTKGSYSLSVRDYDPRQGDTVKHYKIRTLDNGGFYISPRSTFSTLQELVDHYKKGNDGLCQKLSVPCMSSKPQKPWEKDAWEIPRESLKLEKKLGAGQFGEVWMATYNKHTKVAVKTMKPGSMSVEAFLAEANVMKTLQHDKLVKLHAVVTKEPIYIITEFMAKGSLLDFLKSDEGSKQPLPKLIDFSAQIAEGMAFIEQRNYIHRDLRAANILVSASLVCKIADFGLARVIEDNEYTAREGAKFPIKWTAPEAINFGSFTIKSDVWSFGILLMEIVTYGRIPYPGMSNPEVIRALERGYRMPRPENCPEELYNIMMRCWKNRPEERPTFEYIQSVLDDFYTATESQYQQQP
Chain of EPHB1 (P54762 whole entry, looked up): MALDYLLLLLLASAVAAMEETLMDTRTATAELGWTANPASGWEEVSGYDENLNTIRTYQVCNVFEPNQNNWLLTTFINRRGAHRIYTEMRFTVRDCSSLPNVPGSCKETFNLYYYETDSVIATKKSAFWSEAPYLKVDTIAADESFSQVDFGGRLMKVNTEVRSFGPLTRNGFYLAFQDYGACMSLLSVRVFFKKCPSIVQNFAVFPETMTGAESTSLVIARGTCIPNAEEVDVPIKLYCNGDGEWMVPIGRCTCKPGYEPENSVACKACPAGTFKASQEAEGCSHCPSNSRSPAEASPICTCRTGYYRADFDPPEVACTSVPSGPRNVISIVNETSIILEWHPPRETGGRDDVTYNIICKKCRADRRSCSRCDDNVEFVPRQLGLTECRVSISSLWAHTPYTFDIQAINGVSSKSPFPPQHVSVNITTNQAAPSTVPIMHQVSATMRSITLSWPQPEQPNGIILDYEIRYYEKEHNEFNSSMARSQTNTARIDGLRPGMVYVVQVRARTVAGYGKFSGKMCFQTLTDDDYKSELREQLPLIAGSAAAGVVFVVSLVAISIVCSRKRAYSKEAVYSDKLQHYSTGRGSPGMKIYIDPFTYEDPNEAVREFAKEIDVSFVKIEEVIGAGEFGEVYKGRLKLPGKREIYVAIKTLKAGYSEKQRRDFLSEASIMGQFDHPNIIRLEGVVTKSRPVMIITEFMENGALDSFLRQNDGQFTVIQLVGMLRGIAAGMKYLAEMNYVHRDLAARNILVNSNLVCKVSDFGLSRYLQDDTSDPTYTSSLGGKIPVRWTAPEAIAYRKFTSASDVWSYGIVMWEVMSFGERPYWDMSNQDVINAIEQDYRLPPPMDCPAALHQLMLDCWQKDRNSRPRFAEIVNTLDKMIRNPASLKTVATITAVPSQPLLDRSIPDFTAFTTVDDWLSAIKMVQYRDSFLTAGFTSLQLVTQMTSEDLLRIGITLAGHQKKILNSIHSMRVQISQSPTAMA

| SH2 binding enrichment (Grb2 SH2) | SH2 binding enrichment (c-Src SH2) | SH2 binding enrichment (SHP2-C SH2) | Sequence | phosphorylation enrichment (AncSZ) | phosphorylation enrichment (Fes) | phosphorylation enrichment (c-Abl (mouse)) | phosphorylation enrichment (EPHB2) | phosphorylation enrichment (Hck) | phosphorylation enrichment (Fer (mouse)) | phosphorylation enrichment (Jak2) | phosphorylation enrichment (MERTK) | phosphorylation enrichment (c-Src) | phosphorylation enrichment (EPHB1) | phosphorylation enrichment (FGFR1) | phosphorylation enrichment (Fyn) | phosphorylation enrichment (FGFR3) |
| --- | --- | --- | --- | --- | --- | --- | --- | --- | --- | --- | --- | --- | --- | --- | --- | --- |
| 0.809 | 0.458 | 0.589 | ELETLYKKAVK [CC2D2A_Y381] | 0.702 | 0.896 | 0.517 | 0.47 | 0.554 | 0.37 | 0.684 | 0.416 | 0.323 | 0.526 | 0.485 | 0.366 | 0.731 |
| 0.837 | 0.364 | 0.506 | PVRIAYGRPRG [SUGP2_Y985_D986G] | 1.01 | 0.523 | 0.5 | 0.493 | 1.25 | 0.61 | 1.18 | 0.606 | 0.816 | 0.643 | 0.449 | 0.639 | 0.64 |
| 1.34 | 0.783 | 0.876 | LKALKYKSMKI [ITGA11_Y1098] | 0.374 | 0.701 | 0.568 | 0.31 | 0.424 | 0.452 | 0.735 | 0.336 | 0.322 | 0.299 | 0.225 | 0.641 | 0.619 |
| 0.556 | 0.419 | 0.551 | SGPRRYNIAAL [TTR_Y125_T126N] | 0.572 | 0.52 | 0.452 | 0.343 | 0.43 | 0.432 | 0.511 | 0.411 | 0.409 | 0.285 | 0.505 | 0.377 | 0.394 |
| 1.2 | 0.715 | 0.735 | MSRDVYSTDYY [NTRK2_Y702] | 1.59 | 0.842 | 0.558 | 2.65 | 1.73 | 0.535 | 0.788 | 5.06 | 3.88 | 2.16 | 3.94 | 2.77 | 2.72 |
| 1.25 | 1.11 | 0.966 | YYHCTYKKRMI [CLEC12A_Y242] | 1.37 | 1.21 | 0.994 | 0.601 | 0.78 | 0.558 | 1.29 | 1.48 | 0.599 | 0.525 | 4.79 | 0.59 | 3.12 |
| 1.07 | 0.349 | 0.899 | LTDTVYSSSSA [OR4C12_Y71_I67T] | 1.12 | 1.15 | 0.911 | 0.374 | 1.93 | 1.69 | 1.09 | 0.58 | 2.33 | 0.323 | 0.694 | 2.53 | 0.586 |
| 0.878 | 0.61 | 0.717 | YEREQYADRTR [RBM4_Y355_A359T] | 0.897 | 0.706 | 0.55 | 0.419 | 0.469 | 0.494 | 0.603 | 0.448 | 0.443 | 0.343 | 0.566 | 0.439 | 0.472 |
| 0.885 | 0.465 | 2.89 | HSVVQYVGGVM [FGGY_Y136_L134V] | 0.989 | 0.911 | 0.61 | 0.572 | 0.609 | 0.643 | 0.726 | 0.603 | 0.491 | 0.517 | 0.447 | 0.465 | 0.629 |
| 0.841 | 0.539 | 1.12 | RPYVYYYSYLL [PTEN_Y177_R173P] | 1.51 | 1.6 | 1.4 | 1.39 | 2.09 | 0.931 | 2.84 | 5.81 | 2.3 | 2.64 | 7.24 | 1.42 | 4.57 |
| 0.842 | 0.512 | 0.683 | ERQIRYLNHQL [CEP152_Y268] | 0.557 | 0.527 | 0.523 | 0.354 | 0.4 | 0.347 | 0.413 | 0.382 | 0.399 | 0.373 | 0.412 | 0.396 | 0.39 |
| 0.771 | 1.43 | 1.79 | IGMSSYVMLAS [GGCX_Y301_F299S] | 1.34 | 1.2 | 0.875 | 0.655 | 0.452 | 0.522 | 1.66 | 0.878 | 0.546 | 0.853 | 1.88 | 0.496 | 1.36 |
| 1.43 | 0.81 | 0.808 | LWKWKYEELKE [CCDC102B_Y299] | 1.28 | 1.73 | 0.725 | 0.493 | 0.513 | 0.712 | 1.09 | 0.336 | 0.27 | 0.92 | 0.573 | 0.631 | 1.24 |
| 0.736 | 0.642 | 0.348 | NPSYNYEIVNQ [DYNC1H1_Y3379_R3384Q] | 0.885 | 0.818 | 0.55 | 4.17 | 0.497 | 2.7 | 0.754 | 0.694 | 0.506 | 10.5 | 0.583 | 0.463 | 0.701 |
| 0.937 | 0.701 | 0.63 | DAAEDYAEGVR [DHODH_Y194] | 1.21 | 1.31 | 0.695 | 0.671 | 0.586 | 0.629 | 0.951 | 0.45 | 0.45 | 0.549 | 0.561 | 0.542 | 0.746 |
| 0.528 | 0.335 | 0.673 | PTEAQYRFIYM [PTPN11_Y511_Q506P] | 2.44 | 2.2 | 1.98 | 0.777 | 1.35 | 1.54 | 2.37 | 1.18 | 1.75 | 1.08 | 3.16 | 1.04 | 2.82 |
| 2.15 | 1.5 | 1.62 | VLALWYYYLTH [ZDHHC23_Y127] | 1.45 | 1.64 | 0.964 | 0.74 | 0.783 | 0.724 | 2.57 | 2.99 | 1.24 | 0.81 | 6.87 | 0.646 | 5.65 |

| SH2 binding enrichment (Grb2 SH2) | SH2 binding enrichment (c-Src SH2) | SH2 binding enrichment (SHP2-C SH2) | Sequence | phosphorylation enrichment (AncSZ) | phosphorylation enrichment (Fes) | phosphorylation enrichment (c-Abl (mouse)) | phosphorylation enrichment (EPHB2) | phosphorylation enrichment (Hck) | phosphorylation enrichment (Fer (mouse)) | phosphorylation enrichment (Jak2) | phosphorylation enrichment (MERTK) | phosphorylation enrichment (c-Src) | phosphorylation enrichment (EPHB1) | phosphorylation enrichment (FGFR1) | phosphorylation enrichment (Fyn) | phosphorylation enrichment (FGFR3) |
| --- | --- | --- | --- | --- | --- | --- | --- | --- | --- | --- | --- | --- | --- | --- | --- | --- |
| 0.773 | 0.945 | 0.778 | TTGGFYSYGGG [KRT24_Y120_A115T] | 1.03 | 1.04 | 0.692 | 1.1 | 2.39 | 4.54 | 0.763 | 13.9 | 1.25 | 1.18 | 0.528 | 2.56 | 0.664 |
| 0.938 | 0.667 | 0.979 | HVIKLFGACSQ [RET_Y791_Y791F] | 1.52 | 1.75 | 1.1 | 0.995 | 0.855 | 0.763 | 0.994 | 0.719 | 0.519 | 1.01 | 0.709 | 0.816 | 1.26 |
| 1.19 | 0.682 | 0.74 | THPFLYLSLEI [MLH1_Y293] | 1.13 | 1.52 | 0.817 | 0.648 | 0.516 | 0.478 | 1.4 | 0.385 | 0.363 | 0.628 | 0.622 | 0.383 | 0.827 |
| 0.8 | 0.587 | 0.795 | KFVKMCDNHQL [MYO9A_Y203_Y203C_YF] | 0.483 | 0.603 | 0.519 | 0.384 | 0.42 | 0.358 | 0.513 | 0.378 | 0.441 | 0.425 | 0.429 | 0.419 | 0.45 |
| 2.05 | 1.51 | 1.98 | KRLFAYKMLMA [TMC2_Y209_Q205R_YF] | 0.767 | 0.867 | 0.58 | 0.528 | 0.455 | 0.59 | 0.669 | 0.375 | 0.367 | 0.484 | 0.458 | 0.433 | 0.683 |
| 0.838 | 0.421 | 0.671 | DGKFSYLKVGH [GRM3_Y480_G475D_YF] | 0.678 | 1.16 | 0.575 | 0.388 | 0.337 | 0.338 | 0.599 | 0.505 | 0.411 | 0.444 | 0.467 | 0.33 | 0.478 |
| 0.801 | 0.478 | 0.664 | KLFFIYTSGTT [SLC27A4_Y245_YF] | 1.16 | 1.19 | 0.967 | 0.646 | 0.424 | 0.529 | 1.1 | 0.398 | 0.345 | 0.633 | 0.531 | 0.435 | 0.813 |
| 1.01 | 0.942 | 0.849 | FGLDRYQCDCT [PTGS1_Y54] | 1.1 | 1.23 | 0.796 | 0.613 | 0.499 | 0.492 | 0.874 | 0.454 | 0.422 | 0.625 | 0.587 | 0.524 | 0.861 |
| 0.872 | 0.437 | 0.737 | DGLASYLDKVR [KRT12_Y139_R135G] | 0.664 | 0.757 | 0.685 | 0.414 | 0.375 | 0.365 | 0.631 | 0.415 | 0.414 | 0.41 | 0.363 | 0.422 | 0.51 |
| 2.09 | 1.2 | 1.8 | LVMFIYAIFGM [SCN1A_Y1684] | 1.49 | 1.88 | 1.55 | 1.03 | 0.777 | 1.19 | 1.94 | 1.13 | 1.99 | 1.03 | 0.952 | 1.21 | 1.41 |
| 0.742 | 1.33 | 0.602 | QMVDMYASSYM [AVPR2_Y124_G122D] | 1.22 | 1.43 | 0.891 | 0.571 | 1.58 | 0.631 | 0.905 | 0.842 | 1.29 | 0.558 | 0.579 | 0.876 | 0.815 |
| 0.758 | 0.493 | 0.913 | KTSGNYLPVTG [WDR19_Y28_A30P] | 0.519 | 0.543 | 0.446 | 0.435 | 0.405 | 0.359 | 0.524 | 0.598 | 0.402 | 0.474 | 0.369 | 0.41 | 0.37 |
| 1.38 | 1.45 | 1.21 | KASGKYYAMKI [AKT3_Y173] | 0.499 | 0.563 | 0.518 | 0.411 | 0.529 | 0.335 | 0.431 | 0.455 | 0.399 | 0.329 | 0.565 | 0.359 | 0.536 |
| 0.849 | 0.679 | 1.16 | DLVRPYVHKIL [SF3B1_Y570] | 0.636 | 0.743 | 0.539 | 0.586 | 0.449 | 0.534 | 0.55 | 0.504 | 0.43 | 0.519 | 0.466 | 0.703 | 0.566 |
| 0.998 | 1.49 | 4.12 | SSEYHYVGGFY [CTSC_Y347] | 3.53 | 0.787 | 14.9 | 12.9 | 4.79 | 2.24 | 2.69 | 6.87 | 3.33 | 9.7 | 13.4 | 3.79 | 11.3 |
| 0.82 | 0.391 | 0.524 | GASWRYRSGVS [NEU1_Y242_G243R] | 0.583 | 0.693 | 0.48 | 0.608 | 0.46 | 0.474 | 0.587 | 0.402 | 0.445 | 0.388 | 0.494 | 0.388 | 0.511 |
